Patent publication US20220332804A1 (CSL INNOVATION, published 2022)

How the values were obtained:
Experiment in all cases: SPR, KD relative to WT C2;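 note: biacore SPR at 37 °C, anti-C2 mAbs captured on anti-human IgG chips with alanine or serine point mutants of C2 as analyte, KD from 1:1 fit compared with wild-type C2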
[1] = biological target: T1, human C2 S456A (human, UniProt P06681 21-752)
T1 sequence: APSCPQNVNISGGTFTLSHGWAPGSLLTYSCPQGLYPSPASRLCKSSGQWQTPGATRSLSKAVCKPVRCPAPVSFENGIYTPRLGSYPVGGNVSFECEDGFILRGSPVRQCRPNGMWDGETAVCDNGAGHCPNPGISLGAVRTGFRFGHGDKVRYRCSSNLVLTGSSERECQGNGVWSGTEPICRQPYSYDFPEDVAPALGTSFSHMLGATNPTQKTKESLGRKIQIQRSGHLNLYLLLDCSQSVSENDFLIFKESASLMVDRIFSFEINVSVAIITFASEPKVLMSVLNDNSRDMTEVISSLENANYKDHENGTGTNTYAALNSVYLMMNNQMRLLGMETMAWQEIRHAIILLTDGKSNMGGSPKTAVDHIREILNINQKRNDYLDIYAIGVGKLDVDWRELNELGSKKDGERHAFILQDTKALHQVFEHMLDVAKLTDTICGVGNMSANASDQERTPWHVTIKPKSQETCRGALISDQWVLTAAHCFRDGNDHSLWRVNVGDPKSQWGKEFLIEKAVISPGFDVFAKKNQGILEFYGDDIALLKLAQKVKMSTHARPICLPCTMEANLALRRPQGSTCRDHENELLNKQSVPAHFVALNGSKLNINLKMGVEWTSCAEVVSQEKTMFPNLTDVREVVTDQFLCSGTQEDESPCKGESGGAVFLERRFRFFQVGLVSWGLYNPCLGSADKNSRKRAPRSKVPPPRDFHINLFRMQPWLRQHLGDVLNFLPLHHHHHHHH

[2] = biological target: T2, human C2 H451A (human, UniProt P06681 21-752)
T2 sequence: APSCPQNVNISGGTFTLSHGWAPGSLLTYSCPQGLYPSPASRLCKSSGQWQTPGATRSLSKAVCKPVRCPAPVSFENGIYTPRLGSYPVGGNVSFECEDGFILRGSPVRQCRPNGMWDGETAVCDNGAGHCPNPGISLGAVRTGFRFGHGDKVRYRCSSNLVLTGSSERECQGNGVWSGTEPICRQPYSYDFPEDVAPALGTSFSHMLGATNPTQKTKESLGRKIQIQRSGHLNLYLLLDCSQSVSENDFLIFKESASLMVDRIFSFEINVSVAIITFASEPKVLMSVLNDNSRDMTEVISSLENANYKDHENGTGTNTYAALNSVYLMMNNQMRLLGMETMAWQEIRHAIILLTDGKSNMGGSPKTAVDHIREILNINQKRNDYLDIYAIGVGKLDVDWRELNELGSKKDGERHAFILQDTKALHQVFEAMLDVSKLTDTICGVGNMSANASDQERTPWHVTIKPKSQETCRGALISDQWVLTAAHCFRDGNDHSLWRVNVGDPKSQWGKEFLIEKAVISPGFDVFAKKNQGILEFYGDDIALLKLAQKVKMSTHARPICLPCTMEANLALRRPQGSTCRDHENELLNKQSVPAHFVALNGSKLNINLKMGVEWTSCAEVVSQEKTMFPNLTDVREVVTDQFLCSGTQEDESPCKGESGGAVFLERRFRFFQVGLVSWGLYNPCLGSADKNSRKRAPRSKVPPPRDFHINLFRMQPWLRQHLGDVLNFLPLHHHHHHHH

[3] = biological target: T3, human C2 V448A (human, UniProt P06681 21-752)
T3 sequence: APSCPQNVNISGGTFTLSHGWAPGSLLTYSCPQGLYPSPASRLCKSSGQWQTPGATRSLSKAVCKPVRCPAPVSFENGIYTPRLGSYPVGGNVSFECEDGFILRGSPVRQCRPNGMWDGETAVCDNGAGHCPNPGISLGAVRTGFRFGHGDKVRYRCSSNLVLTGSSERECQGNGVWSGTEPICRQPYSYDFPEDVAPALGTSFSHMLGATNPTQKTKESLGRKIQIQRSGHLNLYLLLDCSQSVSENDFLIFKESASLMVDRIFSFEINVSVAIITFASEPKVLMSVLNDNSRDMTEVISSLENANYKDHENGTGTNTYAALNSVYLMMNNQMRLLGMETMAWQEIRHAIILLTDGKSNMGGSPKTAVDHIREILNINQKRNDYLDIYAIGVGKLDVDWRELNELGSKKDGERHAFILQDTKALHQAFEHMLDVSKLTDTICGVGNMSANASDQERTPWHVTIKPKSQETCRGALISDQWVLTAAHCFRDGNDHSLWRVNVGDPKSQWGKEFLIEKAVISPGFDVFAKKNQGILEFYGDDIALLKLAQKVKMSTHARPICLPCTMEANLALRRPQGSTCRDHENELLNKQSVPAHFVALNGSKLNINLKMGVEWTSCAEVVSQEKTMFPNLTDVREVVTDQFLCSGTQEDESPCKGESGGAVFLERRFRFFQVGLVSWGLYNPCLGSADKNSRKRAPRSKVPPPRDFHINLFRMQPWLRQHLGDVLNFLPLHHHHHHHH

[4] = biological target: T4, human C2 N327A (human, UniProt P06681 21-752)
T4 sequence: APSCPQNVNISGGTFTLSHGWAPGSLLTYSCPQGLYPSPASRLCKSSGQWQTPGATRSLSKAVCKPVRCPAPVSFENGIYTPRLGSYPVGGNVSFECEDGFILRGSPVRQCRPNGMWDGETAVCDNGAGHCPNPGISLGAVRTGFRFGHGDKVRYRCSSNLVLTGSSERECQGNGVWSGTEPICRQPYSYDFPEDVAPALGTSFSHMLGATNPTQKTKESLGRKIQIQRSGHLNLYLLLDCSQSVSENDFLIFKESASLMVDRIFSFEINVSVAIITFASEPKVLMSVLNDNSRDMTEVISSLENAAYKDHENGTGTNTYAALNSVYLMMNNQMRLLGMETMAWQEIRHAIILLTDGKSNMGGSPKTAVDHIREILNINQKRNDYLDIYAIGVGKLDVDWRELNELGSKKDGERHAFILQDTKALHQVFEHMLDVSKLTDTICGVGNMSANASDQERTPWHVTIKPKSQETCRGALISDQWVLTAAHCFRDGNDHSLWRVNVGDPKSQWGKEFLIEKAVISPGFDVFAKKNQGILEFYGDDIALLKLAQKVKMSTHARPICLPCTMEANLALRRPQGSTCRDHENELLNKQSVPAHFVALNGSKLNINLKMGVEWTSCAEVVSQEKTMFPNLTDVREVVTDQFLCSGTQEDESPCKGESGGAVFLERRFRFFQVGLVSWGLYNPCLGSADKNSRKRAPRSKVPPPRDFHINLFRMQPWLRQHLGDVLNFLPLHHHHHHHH

B1: RF16-242 (antibody, human IgG4 S228P, lambda, V domains shown)
VH: EVQLLQSGAEVKKPGESLKISCKGSGYSFTSYWIGWVRQMPGKGLEWMGIIYPGDSDTRYSPSFQGQVTISADKSISTAYLQWSSLKASDTAMYYCARRGHYGDYFDYWGQGTLVTVSS
VL: SYELTQPPSVSVSPGQTARITCSGDALPKKYAYWYHQKSGQAPVLVIYEDRRRPSEIPERFSGSSSGTMATLTITGAQVEDEGVYFCYSRDRAGNQRVFGGGTQLTVLG
notes: pH-dependent anti-C2 antibody from a phage display library
[1]
  Fold diff: 9 fold
[2]
  Fold diff: 3 fold
[3]
  Fold diff: 1 fold
[4]
  Fold diff: 5 fold
